Measured values as given in article doi:10.1101/2020.11.10.376558.

Test system: GST-N571 (CIZ1 N-terminal fragment with PLD1 and PLD2) (Mus musculus)
Assay: EMSA

Substance | K half [nM]
Xist repeat E proximal (sense) | 100
Xist repeat A sense | 200
